From US20220184124A1

Biological target: CD19 on Daudi cells (CD19 positive target tumor cells) (UniProt P15391)
Assay: cell-based or functional assay

Chain of UniProt P15391 (P15391 20-556 limits assumed): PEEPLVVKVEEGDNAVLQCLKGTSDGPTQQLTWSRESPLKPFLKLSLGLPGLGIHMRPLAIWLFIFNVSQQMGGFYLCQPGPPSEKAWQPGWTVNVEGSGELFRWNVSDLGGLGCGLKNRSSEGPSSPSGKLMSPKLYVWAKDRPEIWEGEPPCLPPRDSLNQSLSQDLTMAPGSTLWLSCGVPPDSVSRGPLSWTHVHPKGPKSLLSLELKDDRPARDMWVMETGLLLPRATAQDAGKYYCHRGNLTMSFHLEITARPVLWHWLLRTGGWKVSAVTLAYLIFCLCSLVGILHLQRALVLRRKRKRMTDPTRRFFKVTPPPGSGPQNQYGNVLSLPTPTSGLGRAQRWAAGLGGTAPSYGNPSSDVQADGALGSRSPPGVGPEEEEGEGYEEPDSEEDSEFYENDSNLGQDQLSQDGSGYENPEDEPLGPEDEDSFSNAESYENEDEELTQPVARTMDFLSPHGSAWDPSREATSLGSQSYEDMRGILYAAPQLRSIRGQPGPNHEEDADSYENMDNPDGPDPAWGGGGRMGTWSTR

CD19(4G7) scFv/4-1BB/CD3ζ CAR (receptor)
% CD107a+ of CD4+ T cells, 6 hr co-culture with Daudi cells: 30.4% | % CD107a+ of CD8+ T cells, 6 hr co-culture with Daudi cells: 44.6% | % CD107a+ of NK cells (CD5-CD56+), co-culture with Daudi cells: 32.5% | % CD107a+ of NKT cells, 6 hr co-culture with Daudi cells: 48.6% | % CD107a+ of TCRγδ T cells, co-culture with Daudi cells: 23.2% | % CD107a+ of residual TCRαβ+ cells, 6 hr co-culture with Daudi cells: 64.8% | % IFNγ+ of CD8+ T cells, co-culture with Daudi cells: 16.7% | % IFNγ+ of NKT cells, co-culture with Daudi cells: 24.8% | % IFNγ+ of TCRγδ T cells, co-culture with Daudi cells: 7.46% | % IFNγ+ of residual TCRαβ+ cells, co-culture with Daudi cells: 50.9% | % IL2+ of CD8+ T cells, co-culture with Daudi cells: 0.69% | % IL2+ of NKT cells, co-culture with Daudi cells: 1.07% | % IL2+ of TCRγδ T cells, co-culture with Daudi cells: 0.23% | % IL2+ of residual TCRαβ+ cells, co-culture with Daudi cells: 13.9% | % TNFα+ of CD8+ T cells, co-culture with Daudi cells: 21.5% | % TNFα+ of NKT cells, co-culture with Daudi cells: 28.3% | % TNFα+ of TCRγδ T cells, co-culture with Daudi cells: 12.9% | % TNFα+ of residual TCRαβ+ cells, co-culture with Daudi cells: 50%
